Data from patent US20260201058A1 (SICHUAN HUIYU PHARMACEUTICAL, published 2026).
Where two headings read alike, the source gives them in different places.

How the values were obtained:
[1] = biological target: T1, monkey PD-L1 (Cyno-PD-L1) on cells (monkey (cyno)); test: flow cytometry on 293F-cyno PD-L1 cells
T1 construct: whole, on cells; also called CHO-cynoPDL1; 293F-cyno PD-L1 cells
Description: (§1) After washing with PBS, a flow cytometer was used for detection.

[2] = biological target: T2, human PD-L1 on GS-C2 cells (cells overexpressing human PD-L1, GenScript, M00613) (human, UniProt Q9NZQ7 19-290); test: cell-based or functional assay
T2 sequence (Q9NZQ7 19-290, one chain of several): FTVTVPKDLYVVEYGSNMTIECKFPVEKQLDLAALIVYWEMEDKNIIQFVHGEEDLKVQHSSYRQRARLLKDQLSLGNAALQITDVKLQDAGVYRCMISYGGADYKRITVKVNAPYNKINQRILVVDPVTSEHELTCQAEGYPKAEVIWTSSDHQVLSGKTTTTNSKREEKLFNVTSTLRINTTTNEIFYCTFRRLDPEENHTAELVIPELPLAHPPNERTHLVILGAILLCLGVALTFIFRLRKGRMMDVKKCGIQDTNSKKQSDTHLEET

[3] = biological target: T2, human PD-L1 on GS-C2 cells (cells …); test: flow cytometry competition on GS-C2 cells, competitor human PD-1-mFc 1.25 ug/mL
Description: as §1

[4] = biological target: T2, human PD-L1 on GS-C2 cells (cells …); test: flow cytometry on GS-C2 cells
Description: as §1

[5] = biological target: T3, monkey PD-L1 protein (Kactus Biosystems, PDL-CM210) (monkey); test: Carterra HC30M chip, antibody captured via anti-DYKDDDDK, PD-L1 as analyte
T3 construct: Bought protein; also called Monkey PDL1-Fc
Protocol: (§2) The anti-[…] antibody was bound to the HC30M chip via amino coupling, then […] of humanized PD-L1 single-domain antibody was captured. After the baseline was stabilized, gradient diluted human PD-L1 protein (ACRO, PD1-H5258) and monkey PD-L1 protein (Kactus Biosystems, PDL-CM210) (starting from 100 nM, gradient dilution) were flowed over the chip from low to high concentrations, with a binding time of 8 minutes and a dissociation time of 20 minutes. Kinetic constants were obtained by fitting with Carteria software.

[6] = biological target: T4, human PD-L1 protein (ACRO, PD1-H5258) (human, UniProt Q9NZQ7 19-238); test: as above
T4 construct: Bought protein; also called Human PDL1-Fc
T4 sequence (Q9NZQ7 19-238): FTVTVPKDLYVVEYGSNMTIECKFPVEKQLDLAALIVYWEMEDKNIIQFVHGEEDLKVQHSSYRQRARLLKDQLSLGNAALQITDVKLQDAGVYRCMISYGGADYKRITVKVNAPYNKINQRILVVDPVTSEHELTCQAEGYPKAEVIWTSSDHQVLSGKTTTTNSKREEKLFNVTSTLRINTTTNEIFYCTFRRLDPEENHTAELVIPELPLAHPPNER
Protocol: as §2

[7] = biological target: T2, human PD-L1 on GS-C2 cells (cells …); test: flow cytometry competition on GS-C2 cells, competitor human PD-1-mFc 1.25 ug/mL; remark: listed apart in the source
Description: (§3) After washing with PBS, a flow cytometer was used for detection. IC₅₀ was fitted with experimental data by GraphPad Prism.

[8] = biological target: T1, monkey PD-L1 (Cyno-PD-L1) on cells; test: flow cytometry competition on 293F-cyno PD-L1 cells, competitor monkey PD-1-hFc 1.25 ug/mL
Description: as §3

[9] = biological target: T4, human PD-L1 protein (ACRO, PD1-H5258); test: SPR (Carterra LSA), nanobody on NiHC200M chip via His-Tag, PD-L1 as analyte
Protocol: The measurement was conducted using a capture kinetics process. The test antibody was immobilized on the surface of the NiHC200M chip via His-Tag. After several rounds of blank buffer injection and stabilizing the detection baseline, human PD-L1 protein was injected as the analyte. Each round of injection consisted of 2 minutes of baseline, 8 minutes of binding, and 20 minutes of dissociation. After subtracting the reference point and zero concentration signal (Double Reference) from the original measurement data, the binding curve was fitted by Carterra LSA Kinetics software and the kinetic parameters were calculated.

[10] = biological target: T2, human PD-L1 on GS-C2 cells (cells …); test: flow cytometry on GS-C2 cells; remark: listed apart in the source
Protocol: Then PE-labeled goat anti-Flag fluorescent secondary antibody was added, and incubated on ice for 30 min. After washing with PBS, a flow cytometer was used for detection. EC₅₀ was fitted with the experimental data by GraphPad Prism.

[11] = biological target: T2, human PD-L1 on GS-C2 cells (cells …); test: cell-based or functional assay; remark: listed apart in the source
[12] = biological target: T1, monkey PD-L1 (Cyno-PD-L1) on cells; test: flow cytometry competition on CHO-cynoPDL1 cells, competitor monkey PD-1-hFc 1.25 ug/mL
Protocol: (§4) CHO-huPDL1, CHO-mPDL1, and CHO-cynoPDL1 cells were respectively taken, washed with PBS, and resuspended with 1% BSA. Then 1×10⁵ cells per well were added to a 96-well V-bottom plate. […] After washing with PBS, PE anti-human Fc (Biolegend, 410708) was added and incubated on ice for 30 min. After washing with PBS, a flow cytometer was used for detection. IC₅₀ was fitted with experimental data by GraphPad Prism.

[13] = biological target: T5, human PD-L1 on CHO-huPDL1 cells (human, UniProt Q9NZQ7 19-290); test: flow cytometry competition on CHO-huPDL1 cells, competitor human PD-1-hFc 1.25 ug/mL
T5 construct: whole, on cells; also called CHO-hPDL1
T5 sequence (Q9NZQ7 19-290): as the sequence (Q9NZQ7 19-290, one chain of several) above
Protocol: as §4

[14] = biological target: T6, mouse PD-L1 protein (ACRO, PD1-M5251) (mouse, UniProt Q9EP73 19-238); test: Carterra HC30M chip, nanobody captured via anti-DYKDDDDK, PD-L1 as analyte
T6 construct: Bought protein; also called Mouse PDL1-Fc
T6 sequence (Q9EP73 19-238): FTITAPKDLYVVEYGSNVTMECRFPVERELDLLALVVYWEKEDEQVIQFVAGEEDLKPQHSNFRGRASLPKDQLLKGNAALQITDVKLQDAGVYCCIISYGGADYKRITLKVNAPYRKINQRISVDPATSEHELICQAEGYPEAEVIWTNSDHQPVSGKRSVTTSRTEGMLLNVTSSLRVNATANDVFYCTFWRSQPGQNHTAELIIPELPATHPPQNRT
Description: (§5) Kinetic constants were obtained by fitting with Carteria software.

[15] = biological target: T3, monkey PD-L1 protein (Kactus …); test: as above
Description: as §5

[16] = biological target: T4, human PD-L1 protein (ACRO, PD1-H5258); test: as above
Description: as §5

[17] = biological target: T7, mouse PD-L1 on CHO-mPDL1 cells (mouse, UniProt Q9EP73 19-290); test: flow cytometry competition on CHO-mPDL1 cells, competitor mouse PD-1-hFc 1.25 ug/mL
T7 construct: whole, on cells
T7 sequence (Q9EP73 19-290): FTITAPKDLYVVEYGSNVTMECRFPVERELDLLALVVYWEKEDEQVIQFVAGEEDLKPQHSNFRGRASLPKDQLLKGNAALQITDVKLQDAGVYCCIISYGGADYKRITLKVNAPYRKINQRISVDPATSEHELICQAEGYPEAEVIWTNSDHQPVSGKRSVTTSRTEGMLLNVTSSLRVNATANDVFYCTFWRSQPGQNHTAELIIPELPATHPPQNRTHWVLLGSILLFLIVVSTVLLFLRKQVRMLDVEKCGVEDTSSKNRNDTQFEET
Protocol: as §4

B1: 7B11 (Fc fusion)
chain: EVQLVESGGGLVQAGGSLRLSCAASGGTFLTYGMGWFRQAPGKEREFVAAINWSGSMTNYADSVKGRSTISRDNARNTVYLQMISLKPEDTAVYYCAAKTGAVAYIQKNEYDYWGQGTQVTVSSGGGGSGGGGSDKTHTCPPCPAPEAAGAPSVFLFPPKPKDTLMISRTPEVTCVVVDVSHEDPEVKFNWYVDGVEVHNAKTKPREEQYNSTYRVVSVLTVLHQDWLNGKEYKCAVSNKALPAPIEKTISKAKGQPREPQVYTLPPSRDELTKNQVSLTCLVKGFYPSDIAVEWESNGQPENNYKTTPPVLDSDGSFFLYSKLTVDKSRWQQGNVFSCSVMHEALHNHYTQKSLSLSP
notes: also called 7B11 VHH-Fc antibody (260-7-B11 fused to human IgG1 Fc)
[1]
  EC50: 1.58 nM
[2]
  EC50 (nM), blocking of T cell PD-1/PD-L1 signaling pathway (GS-C2 cells with Jurket-NFAT-PD1 cells, luciferase): 2.11 nM
[3]
  IC50: 0.221 nM
[4]
  EC50: 0.642 nM

B2: 7B11_huGS_HM1 (Fc fusion)
chain: EVQLVESGGGLVQPGGSLRLSCAASGGTFLTYGMGWFRQAPGKGLEFVAAINWSGSMTNYADSVKGRFTISRDNAKNTVYLQMNSLRAEDTAVYYCAAKTGAVAYIQKNEYDYWGQGTLVTVSSGGGGSGGGGSDKTHTCPPCPAPEAAGAPSVFLFPPKPKDTLMISRTPEVTCVVVDVSHEDPEVKFNWYVDGVEVHNAKTKPREEQYNSTYRVVSVLTVLHQDWLNGKEYKCAVSNKALPAPIEKTISKAKGQPREPQVYTLPPSRDELTKNQVSLTCLVKGFYPSDIAVEWESNGQPENNYKTTPPVLDSDGSFFLYSKLTVDKSRWQQGNVFSCSVMHEALHNHYTQKSLSLSP
notes: Humanized VHH-Fc antibody
[5]
  Kd: 0.0252 nM
[6]
  Kd: 0.0294 nM

B3: 7B11_huBSM_HM2 (Fc fusion)
chain: EVQLVESGGGLVQAGGSLRLSCAASGGTFLTYGMGWFRQAPGKEREFVAAINWSGSMTNYADSVKGRFTISRDNAKNTVYLQMRSLTSEDTAVYYCAAKTGAVAYIQKNEYDYWGQGTLVTVSSGGGGSGGGGSDKTHTCPPCPAPEAAGAPSVFLFPPKPKDTLMISRTPEVTCVVVDVSHEDPEVKFNWYVDGVEVHNAKTKPREEQYNSTYRVVSVLTVLHQDWLNGKEYKCAVSNKALPAPIEKTISKAKGQPREPQVYTLPPSRDELTKNQVSLTCLVKGFYPSDIAVEWESNGQPENNYKTTPPVLDSDGSFFLYSKLTVDKSRWQQGNVFSCSVMHEALHNHYTQKSLSLSP
notes: Humanized VHH-Fc antibody
[5]
  Kd: 0.0307 nM
[6]
  Kd: 0.0362 nM

B4: 7B11_huBSM_HM1 (Fc fusion)
chain: EVQLVESGGGLVQAGGSLRLSCAASGGTFLTYGMGWFRQAPGKGLVFVAAINWSGSMTNYADSVKGRFTISRDNAKNTVYLQMRSLTSEDTAVYYCAAKTGAVAYIQKNEYDYWGQGTQVTVSSGGGGSGGGGSDKTHTCPPCPAPEAAGAPSVFLFPPKPKDTLMISRTPEVTCVVVDVSHEDPEVKFNWYVDGVEVHNAKTKPREEQYNSTYRVVSVLTVLHQDWLNGKEYKCAVSNKALPAPIEKTISKAKGQPREPQVYTLPPSRDELTKNQVSLTCLVKGFYPSDIAVEWESNGQPENNYKTTPPVLDSDGSFFLYSKLTVDKSRWQQGNVFSCSVMHEALHNHYTQKSLSLSP
notes: Humanized VHH-Fc antibody
[5]
  Kd: 0.0347 nM
[6]
  Kd: 0.0382 nM

B5: 7B11_huBSM1 (Fc fusion)
chain: EVQLVESGGGLVQAGGSLRLSCAASGGTFLTYGMGWFRQAPGKERVFVAAINWSGSMTNYADSVKGRFTISRDNAKNTVYLQMRSLTSEDTAVYYCAAKTGAVAYIQKNEYDYWGQGTQVTVSSGGGGSGGGGSDKTHTCPPCPAPEAAGAPSVFLFPPKPKDTLMISRTPEVTCVVVDVSHEDPEVKFNWYVDGVEVHNAKTKPREEQYNSTYRVVSVLTVLHQDWLNGKEYKCAVSNKALPAPIEKTISKAKGQPREPQVYTLPPSRDELTKNQVSLTCLVKGFYPSDIAVEWESNGQPENNYKTTPPVLDSDGSFFLYSKLTVDKSRWQQGNVFSCSVMHEALHNHYTQKSLSLSP
notes: Humanized VHH-Fc antibody
[5]
  Kd: 0.0294 nM
[6]
  Kd: 0.0372 nM

B6: 7B11_huGS_HM4 (Fc fusion)
chain: EVQLVESGGGLVQPGGSLRLSCAASGGTFLTYGMGWFRQAPGKGLEFVAAINWSGSMTNYADSVKGRFTISRDNAKNTVYLQMNSLRAEDTAVYYCAAKTGAVAYIQKNEYDYWGQGTQVTVSSGGGGSGGGGSDKTHTCPPCPAPEAAGAPSVFLFPPKPKDTLMISRTPEVTCVVVDVSHEDPEVKFNWYVDGVEVHNAKTKPREEQYNSTYRVVSVLTVLHQDWLNGKEYKCAVSNKALPAPIEKTISKAKGQPREPQVYTLPPSRDELTKNQVSLTCLVKGFYPSDIAVEWESNGQPENNYKTTPPVLDSDGSFFLYSKLTVDKSRWQQGNVFSCSVMHEALHNHYTQKSLSLSP
notes: Humanized VHH-Fc antibody
[1]
  EC50: 2 nM
[2]
  EC50 (nM), blocking of T cell PD-1/PD-L1 signaling pathway (GS-C2 cells with Jurket-NFAT-PD1 cells, luciferase): 1.97 nM
[5]
  Kd: 0.0326 nM
[6]
  Kd: 0.035 nM
[3]
  IC50: 0.24 nM
[4]
  EC50: 0.729 nM

B7: 7B11_huGS1 (Fc fusion)
chain: EVQLVESGGGLVQPGGSLRLSCAASGGTFLTYGMGWVRQAPGKGLEWVAAINWSGSMTNYADSVKGRFTISRDNAKNTVYLQMNSLRAEDTAVYYCAAKTGAVAYIQKNEYDYWGQGTLVTVSSGGGGSGGGGSDKTHTCPPCPAPEAAGAPSVFLFPPKPKDTLMISRTPEVTCVVVDVSHEDPEVKFNWYVDGVEVHNAKTKPREEQYNSTYRVVSVLTVLHQDWLNGKEYKCAVSNKALPAPIEKTISKAKGQPREPQVYTLPPSRDELTKNQVSLTCLVKGFYPSDIAVEWESNGQPENNYKTTPPVLDSDGSFFLYSKLTVDKSRWQQGNVFSCSVMHEALHNHYTQKSLSLSP
notes: Humanized VHH-Fc antibody
[5]
  Kd: 0.0588 nM
[6]
  Kd: 0.0815 nM

B8: 260-7-B11 nanobody (VHH)
VHH: EVQLVESGGGLVQAGGSLRLSCAASGGTFLTYGMGWFRQAPGKEREFVAAINWSGSMTNYADSVKGRSTISRDNARNTVYLQMISLKPEDTAVYYCAAKTGAVAYIQKNEYDYWGQGTQVTVSS
notes: Prokaryotically expressed VHH
[7]
  IC50: 0.396 nM
[8]
  IC50: 0.627 nM
[9]
  Kd: 0.0243 nM
[10]
  EC50: 0.739 nM
[11]
  EC50 (nM), blocking of T cell PD-1/PD-L1 signaling pathway (GS-C2 cells with Jurket-NFAT-PD1 cells, luciferase): 15.3 nM

B9: 4A7 nanobody (VHH)
VHH: EVQLVESGGGLVQAGDSLRLGCAASGRTFSTNVMGWFRQAPGKEREFVSAISRAGSTYSADSVKGRFTISRDNAENTVYLQMNSLKPEDTAVYYCAAGSSPTAIFGKSGMDYWGKGTLVTVSS
notes: Prokaryotically expressed VHH; also called anti-PD-L1 nanobody 4A7
[12]
  IC50: 3.55 nM
[13]
  IC50: 1.35 nM
[14]
  Kd: 99.1 nM
[15]
  Kd: 221 nM
[16]
  Kd: 147 nM
[17]
  IC50: 1.83 nM
